According to patent US20200407449A1:

T1: mouse VISTA-Fc (mouse) (UniProt Q9D659)
T1 sequence (looked up): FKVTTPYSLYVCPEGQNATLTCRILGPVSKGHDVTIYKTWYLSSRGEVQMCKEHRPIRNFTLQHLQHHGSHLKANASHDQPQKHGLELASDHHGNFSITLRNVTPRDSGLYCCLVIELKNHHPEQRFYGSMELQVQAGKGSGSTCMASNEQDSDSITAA


Biological target: T1, mouse VISTA-Fc (mouse)
Assay: monoclonal scFv phage ELISA, plate coated with 1 ug/ml VISTA-Fc, anti-M13-HRP

Binder | OD [OD]
1A12 monoclonal scFv phage (scFv, V domains shown) VH: QMQLVESGGGLVEPGRSLRLSCTTSGFSFHDYTMYWVRQVPGKGLEWVSLISWDGTITFYADPVRGRFTISRDNSKNSLYLQMNSLRAEDTAVYYCAKEDRYDYYSGAFDIWGQGTVVTVSS VL: QSALTQPRSVSGSPGQSVTISCTGTSSDVGGYDYVSWYQQHPGKAPKLILNDVNKRPSGVPDRFSGSKSGNTASLTISGLQPDDEADYYCSSFAGSNTLRVFGGGTKLTVLG | 0.08
3C5 monoclonal scFv phage (scFv, V domains shown) VH: QVQLVQSGAEVKKPGASVKLSCKASGYTFSSYWMHWVRQAPGQRLEWMGEINPGNGHTNYNEKFKSRVTITVDKSASTAYMELSSLRSEDTAVYYCAKDIAYYDFWSGDAFDLWGQGTMVTVSS VL: SYELTQPLSVSVSPGQTASITCSGDKLGNKYASWYQQKPGQSPVLVIYQDNKRPSGIPERFSGSNSGNTATLTISGTQATDEADYYCQTWDRSTGVFGTGTKVTVLG | 0.106
